Test results reported in US6613506B1, “Compositions and methods for inhibiting human immunodeficiency virus infection by down-regulating human cellular genes” (Subsidiary No. 3, Inc., priority 2000, dated 2003).

B1: CF-302: GSE, SEQ ID NO:16, antisense; human CD44 gene (nucleic acid, listed as Homo sapiens)
antisense: GATCCCTGGGCGCGGGGCAGGGGCCGGCGGAGGACGGGACGAGGATGGCGGACCGAACCTGGCAGAGGCTGGG
B2: CF-317: GSE, SEQ ID NO:17, antisense; human phosphatidylinositol 3-kinase gene (nucleic acid, listed as Homo sapiens)
antisense: CCAAGCTTCCTATCTTAAGCTGGGCGTTGATATCCAGGTCACAACTATAGATGTAGTGAAACTTCTCTGCTTCCCCCATCGCACCGTCTGCAAAGGTACCACC
B3: CF-286: GSE, SEQ ID NO:18, sense; human elongation factor-1α gene (nucleic acid, listed as Homo sapiens)
sense: CAGTTGGGGTGGGTGTCATCAAAGCAGTGGACAAGAAGGCTGCTGGAGCTGGCAAGGTCACCAAGTCTGCCCAGAAAGCTCAGAAGGCTAAATGAATATTATCCCTAATACCTGCCACCCCACTCTTAATCAGTGGTGGAAGAAC
B4: CF-004: GSE, SEQ ID NO:7, sense; human 2-oxoglutarate dehydrogenase gene (nucleic acid, listed as Homo sapiens)
sense: GCGCAAAGCACGCGACATGGTGGGGCAGGTGGCCATCACAAGGATTGAGCAGCTGTCGCCATTCCCCTTTGACCTCCTGCTGAAGGAGGTGCAGAAGTACCCCAA
B5: CF-204: GSE, SEQ ID NO:9, antisense; human calnexin gene (nucleic acid, listed as Homo sapiens)
antisense: GGTTGTCAATCACAGGTCGCCAGGAGACACCACATCCAGGAGCTGACTCACATCTAGGGTTGGCAATCTGAGGAGCCTCCCATTCTCCATCCATGTCTTCATCCCAA
B6: CF-273: GSE, SEQ ID NO:11, sense; eukaryotic translation initiation factor 3 gene (nucleic acid, listed as Homo sapiens)
sense: GCTCGTCAGTGTCCACCCCTCCTCGCAACTCCAGGCGCTCCTTTTTCTGCTCCATATAGAGCTCCTGGGCCATTTTCCGGTACTTCCGGAAATCTTCCATCATGGTGCGCCTTC
B7: CF-311: GSE, SEQ ID NO:12, antisense; human protein tyrosine phosphatase gene (nucleic acid, listed as Homo sapiens)
antisense: GGGGGCTCTGTTTGGTGGTCTCTCTAGCTGCACTGGTCTATCAAGCTGTTGGCTGGTCTCTCTCTCTGGCTGGGGATC

The molecules below were run on HIV-1IIIB (assay: Selection of GSEs from HeLa cell library using productive infection of CEM-ss cells).
Format: cell-based
Procedure: Additionally, a normalized RFE library made from HeLa cells was transferred into CEM-ss cells and the neo resistant population was infected with TCID50 of 3000/10^6 cells of HIV-1IIIB. This RFE library was represented by 50×10^6 independent recombinant clones. Four and seven days after infection, a purified anti-CD4 monoclonal antibody, L77 (available from Becton Dickinson), was added at 5 Φg/mL to prevent syncytia formation. Syncytia formation is thought to be prevented by blocking the interaction between gp120 expressed on the surface of an infected cell and CD4 on the surface of an uninfected cell. […] At 10-12 days after infection, CD4^+, p24^− cell population representing uninfected cells were sorted. Genomic DNA from the CD4^+, p24^− cells was purified and used for PCR amplification of inserts with the vector-derived primers. The amplified mixture was digested with EcoRI and BamHI and cloned back into the retroviral vector. The selection was repeated for additional rounds.
The selection of GSEs from HeLa cell library using productive infection of CEM-ss cells isolated […] additional nucleic acid molecules which have substantial sequence identity with other cellular genes.
The selection of GSEs from a HeLa cell library using productive infection of CEM-ss cells isolated 21 additional nucleic acid molecules which have substantial sequence identity with other cellular genes. […] The complement of SEQ ID NO:25 is represented by SEQ ID NO:26. […] The complement of SEQ ID NO:27 is represented by SEQ ID NO:28. […] The complement of SEQ ID NO:29 is represented by SEQ ID NO:30. […] The complement of SEQ ID NO:31 is represented by SEQ ID NO:32. […] The complement of SEQ ID NO:33 is represented by SEQ ID NO:34. […] The complement of SEQ ID NO:35 is represented by SEQ ID NO:36. […] The complement of SEQ ID NO:37 is represented by SEQ ID NO:38. […] The complement of SEQ ID NO:39 is represented by SEQ ID NO:40. […] The complement of SEQ ID NO:41 is represented by SEQ ID NO:42. […] The complement of SEQ ID NO:43 is represented by SEQ ID NO:44. […] The complement of SEQ ID NO:45 is represented by SEQ ID NO:46. […] The complement of SEQ ID NO:47 is represented by SEQ ID NO:48. […] The complement of SEQ ID NO:49 is represented by SEQ ID NO:50. […] The complement of SEQ ID NO:51 is represented by SEQ ID NO:52. […] The complement of SEQ ID NO:53 is represented by SEQ ID NO:54. […] The complement of SEQ ID NO:55 is represented by SEQ ID NO:56. […] The complement of SEQ ID NO:57 is represented by SEQ ID NO:58. […] The complement of SEQ ID NO:59 is represented by SEQ ID NO:60. […] The complement of SEQ ID NO:61 is represented by SEQ ID NO:62. […] The complement of SEQ ID NO:77 is represented by SEQ ID NO:78. […] The complement of SEQ ID NO:87 is represented by SEQ ID NO:88. […] The complement of SEQ ID NO:99 is represented by SEQ ID NO:100. […] The complement of SEQ ID NO:101 is represented by SEQ ID NO:102. […] The complement of SEQ ID NO:103 is represented by SEQ ID NO:104. […] The complement of SEQ ID NO:105 is represented by SEQ ID NO: 106. […] The complement of SEQ ID NO:107 is represented by SEQ ID NO:108. […] The complement of SEQ ID NO:109 is represented by SEQ ID NO:110. […] The complement of SEQ ID NO:111 is represented by SEQ ID NO:112. […] The complement of SEQ ID NO:113 is represented by SEQ ID NO:114. […] The complement of SEQ ID NO:115 is represented by SEQ ID NO:116. […] The complement of SEQ ID NO:117 is represented by SEQ ID NO:118.

Molecule	HIV-suppressive activity of the GSE and active orientation
CF-321: GSE, SEQ ID NO:29, sense; rat guanine nucleotide releasing protein gene (sense AGTTCCTTTTACTTTTTAATCTTTCCTTAAAGCACGCCTGTGTTGGGCTAACGA; listed as Homo sapiens)	interferes with HIV replication in the sense orientation
CF-332: GSE, SEQ ID NO:33, antisense; lymphocyte-specific protein 1 gene (antisense AACACCCATAGTAGGCCTAAAAGCAGCCACCAATTAAGAAAGC; listed as Homo sapiens)	interferes with HIV replication as an antisense molecule
CF-528: GSE, SEQ ID NO:43, sense; GTP binding protein gene (sense AGTGCTTTAACGATGTCACAGCTATCATTTACGTCGCAGCCTGCAGTAGCTACAACATG; chemistry not fully specified; listed as Homo sapiens)	interferes with HIV infection in the sense orientation
CF-537: GSE, SEQ ID NO:25, sense; human bone morphogenic protein-1 gene (sense GGTCCACCATGGCCCTGCTGCACTCCGGCCGCGTCCTCCCCGGGATCGCCGCCGCCT; chemistry not fully specified; listed as Homo sapiens)	interferes with the HIV life cycles in the sense orientation
B1	suppresses HIV infection as an antisense molecule
B2	suppresses HIV infection as an antisense molecule
B3	suppresses HIV infection as a sense molecule
B4	suppresses HIV infection as a sense molecule
B5	suppresses HIV infection as an antisense molecule
B6	suppresses HIV infection as a sense molecule
B7	suppresses HIV infection as an antisense molecule
